From patent US20210171970A1 (CURATORS OF THE UNIVERSITY OF MISSOURI, published 2021) come the findings set out here.

In data set [1] the target is heteromeric acetyl-coenzyme A carboxylase (hetACCase) of Arabidopsis thaliana, in silique or leaf extracts (Arabidopsis thaliana) (UniProt O04983). Nature of the data set: inhibition of ACCase activity in 20-day-old A. thaliana leaf extracts with increasing recombinant BADC1, polynomial fit.
Data set [2] concerns the target alpha-carboxyltransferase (α-CT) subunit of hetACCase, AT2G38040, Arabidopsis thaliana (Arabidopsis thaliana) (UniProt Q9LD43). Nature of the data set: co-IP from A. thaliana chloroplast lysate with anti-α-CT polyclonal antibody, LC-MS/MS.
The target of data set [3] is T1, beta-carboxyltransferase (β-CT) subunit of hetACCase, ATCG00500, Arabidopsis thaliana (Arabidopsis thaliana, UniProt P56765 1-488).
T1 construct: Native protein in chloroplast lysate
T1 sequence (looked up): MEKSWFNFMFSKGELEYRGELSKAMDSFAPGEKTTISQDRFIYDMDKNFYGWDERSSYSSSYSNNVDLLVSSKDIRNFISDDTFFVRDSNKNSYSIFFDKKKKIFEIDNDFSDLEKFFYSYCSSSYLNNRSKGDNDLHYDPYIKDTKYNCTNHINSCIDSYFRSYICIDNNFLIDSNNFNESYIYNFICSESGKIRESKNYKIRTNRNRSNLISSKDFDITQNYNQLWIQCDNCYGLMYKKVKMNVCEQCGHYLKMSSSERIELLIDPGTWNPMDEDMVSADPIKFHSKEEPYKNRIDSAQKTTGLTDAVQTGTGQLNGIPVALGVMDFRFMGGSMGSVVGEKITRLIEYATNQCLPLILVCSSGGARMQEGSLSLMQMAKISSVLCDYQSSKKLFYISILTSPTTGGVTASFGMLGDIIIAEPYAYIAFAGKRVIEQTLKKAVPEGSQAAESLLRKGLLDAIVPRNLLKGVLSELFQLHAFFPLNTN
The data set can be described thus: co-IP from A. thaliana chloroplast lysate with anti-BCCP2 polyclonal antibody, LC-MS/MS.
Procedure: For co-innmunoprecipitation of hetACCase from Arabidopsis seedlings, crude chloroplasts were isolated from approximately 10 g 14-d-old A. thaliana seedlings after 1 h light exposure. Fresh leaves were homogenized in ice-cold grinding buffer (50 mM HEPES-KOH pH 8.0, 330 mM sorbitol, 1.5 mM MnCl₂, 2 mM MgCl₂, 2 mM EDTA, 0.1% (w/v) BSA) using a Waring blender. Homogenate was filtered through two layers of Miracloth and centrifuged at 2,600 g at 4° C. for 20 min. Chloroplasts were lysed for 30 min in ice-cold lysis buffer (50 mM HEPES-KOH pH 8.0, 10% (v/v) glycerol, 0.5% (v/v) Triton X-100). Lysates were homogenized ten times in a Dounce homogenizer on ice and then centrifuged at 30 k g for 20 min at 4° C. Then, 1 mL of the 30 k g supernatant was added to 25 μL Protein A-Sepharose beads (Sigma Aldrich) either uncoated (control) or coated with antibody specific for α-CT, BCCP, BADC1, or BADC2. Co-immunoprecipations (co-IP) were carried out at 4° C. for 3 h with gentle mixing. The heads were washed twice with 1 mL ice-cold lysis buffer and precipitated protein was eluted by adding 30 μL 6×SDS sample buffer (350 mM Tris-HCl, pH 6.8, 350 mM SDS, 30% (v/v) glycerol, 100 mM dithiothreitol, 2.5 mM bromophenol blue) and heating at 65° C. for 10 min. Eluted proteins were resolved on 10% SDS-PAGE gels for western and mass spectrometry analysis. […]

Data set [4] deals with the molecule itself. Nature of the data set: intact mass analysis and non-reducing SDS-PAGE of purified recombinant protein (only a monomer band).

Sequence of alpha-carboxyltransferase (α-CT) subunit of hetACCase, AT2G38040, Arabidopsis thaliana (Arabidopsis thaliana) (Q9LD43 55-769): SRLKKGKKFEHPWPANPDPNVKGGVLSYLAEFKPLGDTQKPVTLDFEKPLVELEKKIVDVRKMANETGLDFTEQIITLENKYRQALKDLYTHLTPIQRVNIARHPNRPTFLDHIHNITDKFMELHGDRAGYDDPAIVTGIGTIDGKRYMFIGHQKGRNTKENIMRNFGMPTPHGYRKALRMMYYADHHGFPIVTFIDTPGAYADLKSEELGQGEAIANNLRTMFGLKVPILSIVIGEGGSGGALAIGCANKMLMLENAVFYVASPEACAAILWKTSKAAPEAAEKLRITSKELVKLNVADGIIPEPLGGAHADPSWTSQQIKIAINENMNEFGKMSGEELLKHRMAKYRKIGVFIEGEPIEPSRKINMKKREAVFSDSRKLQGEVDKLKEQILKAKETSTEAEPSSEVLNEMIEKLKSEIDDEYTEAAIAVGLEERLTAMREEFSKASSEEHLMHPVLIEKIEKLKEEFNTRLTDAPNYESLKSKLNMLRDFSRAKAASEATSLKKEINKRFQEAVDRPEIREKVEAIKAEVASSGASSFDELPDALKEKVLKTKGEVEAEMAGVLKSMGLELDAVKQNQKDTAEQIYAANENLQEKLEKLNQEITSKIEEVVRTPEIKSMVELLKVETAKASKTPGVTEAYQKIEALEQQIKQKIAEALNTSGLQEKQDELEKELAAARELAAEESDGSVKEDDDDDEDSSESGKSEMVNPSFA

B1: BADC1 (biotin/lipoyl attachment domain-containing protein, AT3G56130), Arabidopsis thaliana (protein)
chain: AKAAKSSTTTISDGSSDASVSDGKKTVRRITFPKEVEALVHEMCDETEVAVLQLKVGDFEMNLKRKIGAATNPIPVADISPTVAPPIPSEPMNKSASSAPSPSQAKPSSEKVSPFKNTSYGKPAKLAALEASGSTNYVLVTSPAVGKFQRSRTVKGKKQSPSCKEGDAIKEGQVIGYLHQLGTELPVTSDVAGEVLKLLSDDGDSVGYGDPLVAVLPSFHDINIQ
For B1, the Ki (usually the dissociation constant of the complex between target and ligand, obtained from inhibition or displacement) in data set [1] was found to be 4.3 µM. Also, in data set [2], the replicates of the co-IP in which the protein was present (of seven) was 1 replicates.

B2: BCCP2 (biotin carboxyl carrier protein 2 subunit of hetACCase, AT5G15530), Arabidopsis thaliana (other, UniProt Q9LLC1 88-255, looked up)
chain: EFMAKVSGLLKLVDSKDIVELELKQLDCEIVIRKKEALQQAVPPAPVYHSMPPVMADFSMPPAQPVALPPSPTPTSTPATAKPTSAPSSSHPPLKSPMAGTFYRSPGPGEPPFVKVGDKVQKGQIVCIIEAMKLMNEIEAEKSGTIMELLAEDGKPVSVDTPLFVIAP
modifications: biotinylated (residue not given)
notes: Native protein in chloroplast lysate for the co-IPs; Recombinant and two-hybrid constructs lack the TargetP-predicted transit peptide; also called AtBCCP2; NP_568316.1
In the case of B2, the binding result in data set [3] is listed as “no binding”.

B3: BADC2 (Single hybrid motif protein, AT1G52670), Arabidopsis thaliana (other)
chain: TTLRSVKAIQLSTVPPAETEAIADVKDSDETKSTVVNTHLMPKSSEVEALISEITDSSSIAEFELKLGGFRLYVARKLTDESSPPPQQIQPVVAASATPEGVHTNGSATSSSLAITKTSSSSADRPQTLANKAADQGLVILQSPTVGYFRRSKTIKGKRTPTICKEKDIVKEGQVLCYIEQLGGQIPVESDVSGEIVKILREDGEPVGYNDALITVLPSFPGIKKLQ
notes: Native protein in chloroplast lysate for the co-IPs; Recombinant and two-hybrid constructs lack the TargetP-predicted transit peptide; His-tagged or untagged in co-expression; also called AtBADC2; NP_564612.1
As to B3, in data set [4], the binding result is listed as “no binding”. The replicates of the co-IP in which the protein was present (of seven) in data set [2] was 2 replicates.
